Measured values reported in patent US6855549B1, “Methods and compositions for increasing the infectivity of gene transfer vectors” (The University of Iowa Research Foundation, priority 1998, dated 2005).

Tests used:
[1] = system: human bronchial epithelial cells; type: cell-based
Experimental: Primary human airway epithelial cells were collected by enzymatic digestion of bronchial samples from lung transplants as previously described (Kondo et al., 1991; Zabner et al., 1996). Isolated airway primary cells were seeded at a density of 5×10^5 cells/cm^2 onto collagen-coated Millicell-HA culture inserts (Millipore, Bedford, Mass.). Primary cultures were grown at the air-liquid interface for more than 2 wk, at which time differentiation into a mucociliary epithelium occurs. The culture medium, used to feed only the basolateral side of the cells, contained 49% Dulbecco's modified Eagle's medium (DMEM), 49% Ham's F12, and 2% Ultraser G (BioSepra, Cedex, France).
Recombinant AAV virus was produced by a CaPO4 co-transfection protocol and was purified through three rounds of isopycnic cesium chloride ultracentrifuigation, as previously described (Duan et al., 1997). […] Typical yields were 1×10^9 particles/μl, determined on the basis of DNA slot-blot hybridization assays against plasmid standards. […] Viral preparations were evaluated for the contamination of wild type AAV (wtAAV) by immunocytochemical staining of AV.GFP3ori/Ad.CMVLacZ (Duan et al., 1998)-coinfected 293 cells with anti-Rep antibodies (American Research Products, Belmont, Mass.). […]

airway epithelial cells = experiment: BrdU staining of KGF-treated airway cultures; type: cell-based, human; conditions: KGF 100 ng/ml, two consecutive days
Experimental: Identification of proliferating airway epithelial cells were performed using bromodeoxyuridine (BrdU) labeling reagents from Zymed Laboratories (South San Francisco, Calif.). Cells were treated with recombinant human keratinocyte growth factor (rKGF; Chiron, San Diego, Calif.) at 100 ng/ml for two consecutive days. The cells were then pulse labeled for 12 hr with a 1:100 dilution of the BrdU labeling reagent prior to fixation in 10% neutral buffered formalin. Histochemical staining of BrdU incorporation into nuclei was performed according to the manufacturer's instructions. Cells were counterstained with hematoxylin and the cell culture filters were examined by en face microscopy of the apical surface.

epithelia = conditions: in vivo; cited from earlier work

B1: KGF: recombinant human keratinocyte growth factor (protein, UniProt P21781 32-194, looked up)
Fibroblast growth factor 7: CNDMTPEQMATNVNCSSPERHTRSYDYMEGGDIRVRRLFCRTQWYLRIDKRGKVKGTQEMKNNYNIMEIRTVAVGIVAIKGVESEFYLAMNKEGKLYAKKECNEDCNFKELILENHYNTYASAKWTHNGGEMFVALNQKGIPVRGKKTKKEQKTAHFLPMAIT
- long-term (40 day) gene expression after KGF ([1]; infection from the basal side): inhibited twofold
- efficiency of rAAV transduction after KGF ([1]; virus apical or basolateral): did not increase the efficiency of rAAV transduction
- cell proliferation by BrdU incorporation (airway epithelial cells): significant increases in cell proliferation
- mutagenicity (epithelia): is not mutagenic
